Measurements: US20070020252A1, “Modified protease inhibitors” (priority 2003, published 2007)
Each block holds one molecule with its values, some of them ahead of it. Where no end group is shown, it is not given here.

Columns and labels:
[1] = Pharmacokinetic study in mice: plasma clearance of 125I-labeled protein, SEC of plasma; format: in vivo; details: for α half life: Table 4 summary; for α Phase Clearance (%) / α Phase Half-life / β Phase Clearance (%) / β Phase Half-life (hr) / β Phase Half-life (min): tail vein injection, bi-exponential fit
Method: The pharmacokinetics of DX-890 and the PEGylated DX-890 compounds were measured by iodinating the proteins on available tyrosine residues and measuring their clearance in mice.
Samples were radio-iodinated by the indirect method using the IODO-GEN reagent (method from Pierce Chem. Co., and first described by Chizzonite [J Immunol 147, 1548-1556, 1991; J. Immunol 148, 3117-3124, 1992]). Samples were incubated with the ^125I-NaI solution for 9 min at which time tyrosine (10 mg/mL, a saturated solution) was added to quench the reaction. After about 15 min a 5 μl aliquot was removed as a standard for counting.
For each labeling reaction, the ^125I-labeled material (approx. 0.6 mL) was purified using a single 5 mL D-salt 1800 polyacrylamide column (Pierce Chem. Co.). […] Samples were applied in and columns were eluted with a series of 0.3 mL aliquots. Recovery of applied activity in all protein fractions was >75% and the total recovery of applied activity was >90%. The fractions containing peak levels of labeled protein were pooled for animal injections. To prepare the injectate, the pool was diluted with Tris buffer (pH 7.5) so that the 100 μL injection volume contained about 10 μg of labeled material.
Time of injection and time of sampling were recorded. At sacrifice, samples of 0.5 ml were collected into anticoagulant (0.02 ml EDTA). Cells were spun down and separated from plasma, and cells were stored at −20° C. Plasma was divided into two aliquots, one frozen and one stored at 4° C. for immediate analysis. Analysis included gamma counting of all samples. In addition, analysis was performed for two plasma samples (N=2) at each time point, i.e., 0, and 30 minutes, for ^125I-DX-890, and 0, 30 minutes, and 24 h for the ^125I-DX-890-PEG conjugates. A SEC-HPLC Superose-12 column was used with an in-line radiation detector (FIGS. 4-7).
The solid curves through the sets of data plotted in FIG. 3 are four-parameter, least-squares fits of Equation 3 to the data. Table 3 presents the values for % α Phase, α Phase Half-life, % β Phase, and β Phase Half-life extracted from the least squares fits to the in vivo clearance data set obtained for each of the four compounds tested in mice.

[2] = target: T1, human neutrophil elastase (HNE) (Homo sapiens, UniProt P08246); experiment: Ki measurement: tight-binding inhibition of HNE, fluorogenic substrate hydrolysis; format: biochemical
T1 sequence (P08246 30-267): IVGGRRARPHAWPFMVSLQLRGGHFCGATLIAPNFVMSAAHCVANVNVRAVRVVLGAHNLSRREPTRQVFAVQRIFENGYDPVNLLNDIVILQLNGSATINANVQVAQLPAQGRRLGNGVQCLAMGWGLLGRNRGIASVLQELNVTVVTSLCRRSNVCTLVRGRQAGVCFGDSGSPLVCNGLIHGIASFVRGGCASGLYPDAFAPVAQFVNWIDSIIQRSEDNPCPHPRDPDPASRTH
Method: (§1) Equilibrium inhibition constants for the PEGylated DX-890 samples were determined according to the tight-binding inhibition model with formation of a reversible complex (1:1 stoichiometry). Reactions were set up with 100 pM enzyme and a range of inhibitor concentrations (0-4 nM) at 30° C. in 50 mM HEPES, pH 7.5, 150 mM NaCl, and 0.1% Triton X-100. Following a 24 h incubation, substrate was added (25 μM) to the enzyme-inhibitor solution and the rate of substrate hydrolysis monitored at an excitation of 360 nm and an emission of 460 nm. Plots of the percent remaining activity versus active inhibitor concentration were fit by nonlinear regression analysis to Equation 1 to determine equilibrium dissociation constants. Both the Dyax DX-890 reference lot 00B16 and the DX-890 used for PEGylations, NBG2016/9 were analyzed for comparison. [formula] Where: • % A=percent activity • I=DX-890 • E=HNE concentration • Ki=equilibrium inhibition constant

[3] = Pharmacokinetic study in rabbits: plasma clearance of 125I-labeled protein, SEC of plasma; format: in vivo, New Zealand White rabbits
Method: Pharmacokinetic properties of DX-890 and PEG-30-DX-890 (conjugation at pH 7.4) were measured by iodinating the proteins and measuring clearance of the radiolabel from circulation in rabbits. The two DX-890 preparations were iodinated with iodine-125 using the iodogen method. After radiolabeling, the two labeled protein preparations were purified from unbound label by size exclusion chromatography (SEC). Fractions from the SEC column having the highest radioactivity were pooled. The purified, radiolabeled preparations were characterized for specific activity by gamma counting and for purity by SEC using a Superose-12 column equipped with an in-line radiation detector.
New Zealand White rabbits (ca. 2.5 Kg) were used for clearance measurements, with one animal used for each of the two labeled protein preparations. The radiolabeled preparation was injected into the animal via an ear vein. One blood sample was collected per animal per time point with early time points at approximately 0, 2.5, 5, 7, 15, 30, 60, and 90 minutes post injection and later time points at 4, 8, 16, 24, 30, 48, 72, 96, 144, 168, and 192 hours post injection. Samples (about 0.5 mL) were collected into anticoagulant (EDTA) containing tubes. Cells were separated from the plasma fraction by centrifugation. The plasma fraction was divided into two aliquots. One plasma aliquot was stored at −70° C. and the other aliquot was kept at 4° C. for immediate analyse's. Sample analyses included radiation counting for clearance rate determinations and SEC chromatography to test for changes in the size distribution of radiolabeled material in vivo (stability).

[4] = target: T2, human neutrophil elastase (human, UniProt P08246 30-247); experiment: enzyme inhibition, tight-binding model; 100 pM hNE (summary table, repeats Table 3)
T2 construct: also called hNE; HNE
T2 sequence (looked up): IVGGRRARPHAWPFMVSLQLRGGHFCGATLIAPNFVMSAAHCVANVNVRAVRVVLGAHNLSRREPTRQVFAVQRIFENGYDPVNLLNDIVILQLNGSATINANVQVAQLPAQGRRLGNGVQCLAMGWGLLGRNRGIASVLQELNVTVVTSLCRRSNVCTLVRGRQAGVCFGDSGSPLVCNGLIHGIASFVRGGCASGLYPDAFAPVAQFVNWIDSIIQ
Method: as §1, with “comparison.” for “comparison. [formula] Where: • % A=percent activity • I=DX-890 • E=HNE concentration • Ki=equilibrium inhibition constant”

[5] = target: T2, human neutrophil elastase; experiment: enzyme inhibition, tight-binding model; 100 pM hNE, 0-4 nM inhibitor, 24 h incubation at 30 C, fluorogenic substrate
Method: as §1, with “comparison.” for “comparison. [formula] Where: • % A=percent activity • I=DX-890 • E=HNE concentration • Ki=equilibrium inhibition constant”

[6] = target: T2, human neutrophil elastase; experiment: enzyme inhibition, tight-binding model; 100 pM hNE; reference native DX-890
Method: as §1, with “comparison.” for “comparison. [formula] Where: • % A=percent activity • I=DX-890 • E=HNE concentration • Ki=equilibrium inhibition constant”

[7] = ear vein injection, bi-exponential fit

Molecule: PEG20-DX-890-6.0: DX-890 conjugated to a 20 kDa PEG moiety (MPEG-SPA20K, conjugated at pH 6), mono-PEGylated (EACNLPIVRGPCIAFFPRWAFDAVKGKCVLFPYGGCQGNGNKFYSEKECREYCGVP)
- α half life [1]: 0.25 h
- α Phase Clearance (%) [1]: 53%
- α Phase Half-life [1]: 0.278 h
- β Phase Clearance (%) [1]: 47%
- β Phase Half-life (hr) [1]: 4.9 h
- β Phase Half-life (min) [1]: 296 min

Molecule: PEG20-DX-890-7.4: DX-890 conjugated to a 20 kDa PEG moiety (MPEG-SPA20K, conjugated at pH 7.4), mono-PEGylated (EACNLPIVRGPCIAFFPRWAFDAVKGKCVLFPYGGCQGNGNKFYSEKECREYCGVP)
- α Phase Clearance (%) [1]: 58%
- α Phase Half-life [1]: 0.417 h
- β Phase Clearance (%) [1]: 42%
- β Phase Half-life (hr) [1]: 5.1 h
- β Phase Half-life (min) [1]: 307 min

Molecule: PEG30-DX-890-6.0: DX-890 conjugated to a 30 kDa PEG moiety (MPEG-SPA30K, conjugated at pH 6), mono-PEGylated (EACNLPIVRGPCIAFFPRWAFDAVKGKCVLFPYGGCQGNGNKFYSEKECREYCGVP)
- β phase half life [1]: about 8 hr
- α half life [1]: 0.317 h
- α Phase Clearance (%) [1]: 33%
- α Phase Half-life [1]: 0.32 h
- β Phase Clearance (%) [1]: 67%
- β Phase Half-life (hr) [1]: 8.4 h
- β Phase Half-life (min) [1]: 505 min

B2: DX-890 conjugated to a 30 kDa PEG moiety (conjugated at pH 6) (designed binder)
chain: EACNLPIVRGPCIAFFPRWAFDAVKGKCVLFPYGGCQGNGNKFYSEKECREYCGVP
modifications: single 30 kDa mPEG (MPEG-SPA30K) attached, mono-PEGylated; reaction at pH 6.0, headed 'N-Terminal-Site Modification'
notes: also called PEG30-DX-890-6.0; +30K PEG, pH 6
- Ki [4]: 8 pM
- Ki [5]: 8 pM

Now from value to molecule, other results behind:

- Ki relative to native DX-890 [2]: twice
Molecule: PEG30-DX-890-7.4: DX-890 conjugated to a 30 kDa PEG moiety (MPEG-SPA30K, conjugated at pH 7.4), mono-PEGylated (EACNLPIVRGPCIAFFPRWAFDAVKGKCVLFPYGGCQGNGNKFYSEKECREYCGVP; not fully specified)
- fraction of total material in the slow clearance portion relative to unmodified DX-890 [3]: nearly doubles
- in vivo half-life [3]: about 3 days
- increase of T1/2β versus unmodified protein [3]: about 25 fold
- time label remains stably associated with injectate peaks ([3]; SEC analysis of plasma samples): at least 72 hours
- % α [3, 7]: 55%
- % β [3, 7]: 45%
- T1/2α [3, 7]: 2.73 h
- T1/2β [3, 7]: 69.23 h
- relative levels of circulating radiolabel versus unmodified protein ([3]; one day post injection): more than 100 fold

- Ki [4]: 7 pM
- Ki [5]: 7 pM
B1: DX-890 (designed binder)
chain: EACNLPIVRGPCIAFFPRWAFDAVKGKCVLFPYGGCQGNGNKFYSEKECREYCGVP
modifications: disulfide (positions not given here); also: three intramolecular disulfides, pairing not given here
notes: 56 aa, three intramolecular disulfides; also called EPI-hNE4; Native DX-890

- Ki [4]: 16 pM
- Ki [5]: 16 pM
- fold Ki relative to native DX-890 [6]: 2 fold
B3: DX-890 conjugated to a 30 kDa PEG moiety (conjugated at pH 7.4) (designed binder)
chain: EACNLPIVRGPCIAFFPRWAFDAVKGKCVLFPYGGCQGNGNKFYSEKECREYCGVP
modifications: single 30 kDa mPEG (MPEG-SPA30K) attached, mono-PEGylated; reaction at pH 7.4, headed 'Random-Site Modification' (site not determined)
notes: also called PEG30-DX-890-7.4; +30K PEG, pH 7.4

- Ki [4]: 7 pM
- Ki [5]: 7 pM
B4: DX-890 conjugated to a 20 kDa PEG moiety (conjugated at pH 6) (designed binder)
chain: EACNLPIVRGPCIAFFPRWAFDAVKGKCVLFPYGGCQGNGNKFYSEKECREYCGVP
modifications: single 20 kDa mPEG (MPEG-SPA20K) attached, mono-PEGylated; reaction at pH 6.0, headed 'N-Terminal-Site Modification'
notes: also called PEG20-DX-890-6.0; +20K PEG, pH 6

- Ki [4]: 8 pM
- Ki [5]: 8 pM
B5: DX-890 conjugated to a 20 kDa PEG moiety (conjugated at pH 7.4) (designed binder)
chain: EACNLPIVRGPCIAFFPRWAFDAVKGKCVLFPYGGCQGNGNKFYSEKECREYCGVP
modifications: single 20 kDa mPEG (MPEG-SPA20K) attached, mono-PEGylated; reaction at pH 7.4, headed 'Random-Site Modification' (site not determined)
notes: also called PEG20-DX-890-7.4; +20K PEG, pH 7.4
